According to patent publication US20100055125A1:

Target: clotting factor VIII (human) (UniProt P00451)
Assay: cell-based or functional assay

UniProt P00451, sequence (P00451 20-2351): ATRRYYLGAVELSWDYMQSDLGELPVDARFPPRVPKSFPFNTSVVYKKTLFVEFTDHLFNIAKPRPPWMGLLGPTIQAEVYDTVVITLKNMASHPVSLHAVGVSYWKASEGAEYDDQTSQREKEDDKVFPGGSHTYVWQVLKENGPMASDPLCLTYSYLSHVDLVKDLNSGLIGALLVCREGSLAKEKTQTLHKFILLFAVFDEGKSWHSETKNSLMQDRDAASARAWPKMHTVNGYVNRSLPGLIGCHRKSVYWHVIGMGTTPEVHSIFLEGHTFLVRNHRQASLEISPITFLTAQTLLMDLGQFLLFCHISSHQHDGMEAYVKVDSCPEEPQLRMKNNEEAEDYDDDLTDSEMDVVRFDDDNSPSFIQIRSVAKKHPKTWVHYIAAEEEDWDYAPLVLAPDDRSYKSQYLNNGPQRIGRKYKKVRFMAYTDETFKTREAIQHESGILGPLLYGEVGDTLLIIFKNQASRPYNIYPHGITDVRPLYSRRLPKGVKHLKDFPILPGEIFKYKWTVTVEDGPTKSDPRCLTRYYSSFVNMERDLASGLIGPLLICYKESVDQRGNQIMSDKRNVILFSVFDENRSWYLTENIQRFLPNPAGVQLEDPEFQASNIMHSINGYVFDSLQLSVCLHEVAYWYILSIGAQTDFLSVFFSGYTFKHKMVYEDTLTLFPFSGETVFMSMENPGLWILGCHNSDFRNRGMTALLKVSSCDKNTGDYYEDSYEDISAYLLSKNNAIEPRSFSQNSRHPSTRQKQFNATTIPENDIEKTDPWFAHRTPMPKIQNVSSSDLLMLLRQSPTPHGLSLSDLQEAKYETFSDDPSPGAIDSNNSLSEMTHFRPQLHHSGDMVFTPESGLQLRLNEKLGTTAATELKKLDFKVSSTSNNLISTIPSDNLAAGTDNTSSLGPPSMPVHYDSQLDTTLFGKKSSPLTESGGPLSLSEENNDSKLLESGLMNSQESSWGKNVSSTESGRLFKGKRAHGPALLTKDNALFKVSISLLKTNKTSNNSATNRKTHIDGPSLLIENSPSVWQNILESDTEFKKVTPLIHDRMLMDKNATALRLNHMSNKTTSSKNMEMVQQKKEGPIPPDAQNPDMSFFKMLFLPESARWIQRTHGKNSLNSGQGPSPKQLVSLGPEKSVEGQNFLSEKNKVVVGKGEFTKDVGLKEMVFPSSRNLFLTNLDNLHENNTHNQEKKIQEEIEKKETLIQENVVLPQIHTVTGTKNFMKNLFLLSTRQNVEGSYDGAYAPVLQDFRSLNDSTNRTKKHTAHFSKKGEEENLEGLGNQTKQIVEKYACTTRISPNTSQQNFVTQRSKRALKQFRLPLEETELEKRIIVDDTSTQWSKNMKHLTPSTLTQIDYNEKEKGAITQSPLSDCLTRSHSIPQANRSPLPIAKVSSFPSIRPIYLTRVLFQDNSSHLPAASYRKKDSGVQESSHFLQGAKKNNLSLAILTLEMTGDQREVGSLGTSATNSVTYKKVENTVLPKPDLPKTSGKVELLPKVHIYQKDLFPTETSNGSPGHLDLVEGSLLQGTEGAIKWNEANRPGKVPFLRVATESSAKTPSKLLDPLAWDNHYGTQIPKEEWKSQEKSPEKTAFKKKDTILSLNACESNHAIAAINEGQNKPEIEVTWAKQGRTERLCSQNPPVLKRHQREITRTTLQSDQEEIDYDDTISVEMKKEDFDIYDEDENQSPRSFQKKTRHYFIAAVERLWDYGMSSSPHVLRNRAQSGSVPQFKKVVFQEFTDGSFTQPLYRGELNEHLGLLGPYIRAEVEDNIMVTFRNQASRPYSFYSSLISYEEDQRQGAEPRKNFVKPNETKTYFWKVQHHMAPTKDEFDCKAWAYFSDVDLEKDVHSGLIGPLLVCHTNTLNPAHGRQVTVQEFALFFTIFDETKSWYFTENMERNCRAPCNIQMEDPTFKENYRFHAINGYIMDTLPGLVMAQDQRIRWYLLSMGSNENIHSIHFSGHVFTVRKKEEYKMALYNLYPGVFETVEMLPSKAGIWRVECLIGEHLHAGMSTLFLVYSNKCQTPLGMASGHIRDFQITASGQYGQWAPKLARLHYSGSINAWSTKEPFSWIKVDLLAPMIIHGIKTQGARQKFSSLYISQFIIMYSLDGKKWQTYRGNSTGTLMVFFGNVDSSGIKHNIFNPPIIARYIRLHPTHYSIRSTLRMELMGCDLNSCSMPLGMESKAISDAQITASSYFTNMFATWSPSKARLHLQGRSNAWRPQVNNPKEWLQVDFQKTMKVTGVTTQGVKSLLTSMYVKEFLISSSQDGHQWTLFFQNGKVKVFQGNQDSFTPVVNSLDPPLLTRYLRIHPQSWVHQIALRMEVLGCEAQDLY

FVIII activity of normal plasma after adding ESH8 (% of its initial activity): 32.6
FVIII activity of normal plasma after adding ESH8 (% of the initial activity): 23.5
Substance: murine monoclonal anti-FVIII antibody ESH8 (American Diagnostica)
